Biological target: yAsf1*^532 (full-length yeast Asf1, residues 1 to 279, labeled at position -1 with Alexa Fluor 532) (S. cerevisiae) (UniProt P32447)
Assay: other fluorescence titration; fluorescence quenching: unlabeled histones titrated into 1 nM yAsf1*^532; 20°C; 150 mM KCl, 2 mM MgCl2, 10 mM Tris-HCl pH 7.5, 1% glycerol, 0.05% Brij-35, 0.5 mM TCEP; ligand-depleted binding model

Substance “H3/H4^∆94 (Xenopus laevis, H3 C110A and H4 T71C Δ94-102) (from UniProt P84233 1-136; P62799 1-94) (complex)” has a Kd of 400 pM.
